We go through five molecules from US20130184160, “NUCLEOTIDES AND APTAMERS CONTAINING BORONIC ACID GROUPS HAVING BIASED BINDING TO GLYCOSYLATED PROTEINS, AND USES THEREOF” (published 2013).

The target in data set [1] is Alpha-1 acid glycoprotein (UniProt P02763 P02763:19-201). The experiment in a line: filter; specificity control. The conditions noted are these: label: alpha-32P-dATP.
For the next data set, the target named is T1, Fetuin (UniProt P12763 P12763:19-359).
T1 sequence: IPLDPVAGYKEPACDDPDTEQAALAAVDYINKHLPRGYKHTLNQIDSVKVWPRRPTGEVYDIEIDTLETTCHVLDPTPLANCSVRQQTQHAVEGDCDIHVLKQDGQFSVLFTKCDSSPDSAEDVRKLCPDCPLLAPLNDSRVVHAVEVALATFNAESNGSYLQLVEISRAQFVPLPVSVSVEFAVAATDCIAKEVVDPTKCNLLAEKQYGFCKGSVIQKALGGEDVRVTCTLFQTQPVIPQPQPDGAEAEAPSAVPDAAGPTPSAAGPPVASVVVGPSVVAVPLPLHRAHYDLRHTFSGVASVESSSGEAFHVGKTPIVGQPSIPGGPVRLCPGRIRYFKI
Nature of the data set: filter; specificity control. The conditions noted are these: label: alpha-32P-dATP.

For data set [2], the target named is Fibrinogen, periodate-treated (UniProt P02671-2;P02675;P02679 P02671-2:20-644,P02675:31-491,P02679:27-453). The experiment in a line: filter; same buffer. The conditions noted are these: tags: glycans oxidised with sodium periodate; chain copies: 2; label: alpha-32P-dATP. The procedure: (§1) Dissociation constants in solution were determined by equilibrium filtration (Jenison et al., Science 1994, 263, 1425-1429; Huang & Szostak, RNA 2003, 9: 1456-1463, incorporated herein by reference in their entireties). Using this technique, the bound and unbound ligand (DNA) partition between the two portions separated by a membrane. DNA was first amplified into dsDNA using two primers by PCR (25 cycles of 0.5 min at 94° C., 0.5 min at 46° C., and 0.5 min at 72° C., followed by 5 min at 72° C.). The dsDNA product was then split into ssDNA using one primer and α-³²P-dATP by one-round PCR. The ³²P-labeled ssDNA ligand (10 nM) and the protein (1-1000 nM) in the 100 μL of binding buffer were incubated for 15 min at 25° C. prior to loading into the Microcon YM-100 unit (Millipore, Billerica, Mass.). The solution was centrifuged at 13,000 g for 10 sec to saturate the membrane, and the filtrate was transferred back to the unit. The solution was centrifuged for another 20 sec, and the filtrate (about 10 μL) was collected. Aliquots (10 μL) were taken from both the remaining solution and the filtrate, and radioactivity in each aliquot was determined by Beckman LS 6500 liquid scintillation counter. All binding assays were duplicated. The equilibrium dissociation constants (Kd) of the ligand-protein interaction were obtained by fitting the dependence of bound fractions of specific binding on the concentration of the aptamers to the equation Y=B max X/(Kd+X), using the SigmaPlot program.
(§2) To determine the extent to which the aptamers 85A (SEQ ID NO.: 13), 85B (SEQ ID NO.: 14), and 85C (SEQ ID NO.: 15) bind specifically to fibrinogen, their dissociation constants (Kd) were measured using the equilibrium filtration method with radiolabeled α-³²P-dATP. The target substrate to which the aptamer was binding was fibrinogen (FIG. 12A), deglycosylated fibrinogen (FIG. 12B) and periodated fibrinogen (FIG. 12C).

Data set [3] addresses Fibrinogen, deglycosylated (UniProt P02671-2;P02675;P02679 P02671-2:20-644,P02675:31-491,P02679:27-453). Nature of the data set: filter; same buffer. Conditions: tags: chemically deglycosylated with TFMS; chain copies: 2; label: alpha-32P-dATP. The procedure:
as §1, §2

Data set [4] concerns the target T2, Fibrinogen (glycosylated, untreated) (UniProt P02671-2;P02675;P02679 P02671-2:20-644,P02675:31-491,P02679:27-453). Nature of the data set: filter; same buffer; 102 nM in Table 1. The conditions noted are these: chain copies: 2; label: alpha-32P-dATP. Here is the method:
as §1, with “The solution was centrifuged for another 20 sec, and the filtrate (about 10 μL) was collected.” left out, “All binding assays were duplicated. The equilibrium dissociation constants (Kd) of the ligand-protein interaction were obtained by fitting the dependence of bound fractions of specific binding on the concentration of the aptamers to the equation Y=B max X/(Kd+X), using the SigmaPlot program.” left out
(§3) To determine the extent to which the aptamers 85A (SEQ ID NO.: 13), 85B (SEQ ID NO.: 14), and 85C (SEQ ID NO.: 15) bind specifically to fibrinogen, their dissociation constants (Kd) were measured using the equilibrium filtration method with radiolabeled α-³²P-dATP. […]

Data set [5] deals with T2, Fibrinogen (glycosylated, untreated). The experiment in a line: filter; same buffer; boronic acid destroyed by peroxide. The conditions noted are these: chain copies: 2; label: alpha-32P-dATP.
Data set [6] has the same target. The experiment in a line: filter; same buffer. The conditions noted are these: chain copies: 2; label: alpha-32P-dATP. The procedure: as §1, §2
Data set [7] shares this target. Nature of the data set: filter; same buffer; 193 nM in Table 1. Conditions: chain copies: 2; label: alpha-32P-dATP. The procedure:
as §1, with “The solution was centrifuged for another 20 sec, and the filtrate (about 10 μL) was collected.” left out, “All binding assays were duplicated. The equilibrium dissociation constants (Kd) of the ligand-protein interaction were obtained by fitting the dependence of bound fractions of specific binding on the concentration of the aptamers to the equation Y=B max X/(Kd+X), using the SigmaPlot program.” left out
as §3

Data set [8] has the same target. The experiment in a line: filter; same buffer; 64 nM in Table 1. The conditions noted are these: chain copies: 2; label: alpha-32P-dATP. The procedure:
as §1, with “The solution was centrifuged for another 20 sec, and the filtrate (about 10 μL) was collected.” left out, “All binding assays were duplicated. The equilibrium dissociation constants (Kd) of the ligand-protein interaction were obtained by fitting the dependence of bound fractions of specific binding on the concentration of the aptamers to the equation Y=B max X/(Kd+X), using the SigmaPlot program.” left out
as §3

T2 sequence (P02671 other isoform, or with tags, fused parts or gaps, chain 1 of 3): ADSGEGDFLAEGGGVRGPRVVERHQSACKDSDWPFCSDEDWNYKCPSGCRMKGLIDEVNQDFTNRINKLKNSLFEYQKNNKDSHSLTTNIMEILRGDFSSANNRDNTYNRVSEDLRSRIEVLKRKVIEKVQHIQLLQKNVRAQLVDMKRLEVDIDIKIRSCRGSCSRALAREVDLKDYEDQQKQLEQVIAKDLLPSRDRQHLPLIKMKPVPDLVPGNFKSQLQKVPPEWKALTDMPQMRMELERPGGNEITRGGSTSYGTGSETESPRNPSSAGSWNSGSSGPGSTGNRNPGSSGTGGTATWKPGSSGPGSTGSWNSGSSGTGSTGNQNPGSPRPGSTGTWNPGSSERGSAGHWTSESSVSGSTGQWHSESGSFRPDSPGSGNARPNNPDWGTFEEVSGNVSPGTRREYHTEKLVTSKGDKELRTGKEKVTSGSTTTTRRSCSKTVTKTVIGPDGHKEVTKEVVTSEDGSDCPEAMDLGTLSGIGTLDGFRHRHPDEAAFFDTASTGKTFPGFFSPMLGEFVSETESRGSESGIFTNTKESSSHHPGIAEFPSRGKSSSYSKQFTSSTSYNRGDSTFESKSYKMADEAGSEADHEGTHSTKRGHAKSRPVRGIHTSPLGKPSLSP
T2 sequence (P02675 31-491, chain 2 of 3): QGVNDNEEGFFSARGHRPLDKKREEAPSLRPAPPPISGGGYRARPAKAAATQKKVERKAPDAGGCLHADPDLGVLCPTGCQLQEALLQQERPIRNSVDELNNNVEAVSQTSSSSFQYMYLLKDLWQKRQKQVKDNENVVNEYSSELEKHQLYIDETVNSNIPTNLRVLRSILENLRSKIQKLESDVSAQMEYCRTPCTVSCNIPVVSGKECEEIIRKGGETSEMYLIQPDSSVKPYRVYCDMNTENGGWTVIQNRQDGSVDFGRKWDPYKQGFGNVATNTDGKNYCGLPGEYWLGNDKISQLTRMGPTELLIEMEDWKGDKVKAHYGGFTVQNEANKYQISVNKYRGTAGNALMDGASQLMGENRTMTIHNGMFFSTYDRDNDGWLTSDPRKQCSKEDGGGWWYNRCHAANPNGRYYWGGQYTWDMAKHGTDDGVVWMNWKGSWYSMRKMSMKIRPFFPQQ
T2 sequence (P02679 27-453, chain 3 of 3): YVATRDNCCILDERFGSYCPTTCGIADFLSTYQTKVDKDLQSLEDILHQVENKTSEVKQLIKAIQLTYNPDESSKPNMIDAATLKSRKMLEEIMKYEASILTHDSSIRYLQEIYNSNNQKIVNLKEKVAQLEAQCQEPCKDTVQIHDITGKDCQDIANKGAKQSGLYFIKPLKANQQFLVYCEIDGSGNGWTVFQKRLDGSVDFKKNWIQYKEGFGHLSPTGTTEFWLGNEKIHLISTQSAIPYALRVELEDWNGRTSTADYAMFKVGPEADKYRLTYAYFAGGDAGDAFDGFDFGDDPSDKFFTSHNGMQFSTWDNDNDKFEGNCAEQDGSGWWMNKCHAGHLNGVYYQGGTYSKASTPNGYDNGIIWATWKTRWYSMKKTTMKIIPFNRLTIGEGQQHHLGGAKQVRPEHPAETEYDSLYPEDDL
Fibrinogen, deglycosylated, sequence (P02671 other isoform, or with tags, fused parts or gaps, chain 1 of 3): as the sequence (P02671 other isoform, or with tags, fused parts or gaps, chain 1 of 3) above
Fibrinogen, deglycosylated, sequence (P02675 31-491, chain 2 of 3): as the sequence (P02675 31-491, chain 2 of 3) above
Fibrinogen, deglycosylated, sequence (P02679 27-453, chain 3 of 3): as the sequence (P02679 27-453, chain 3 of 3) above
Fibrinogen, periodate-treated, sequence (P02671 other isoform, or with tags, fused parts or gaps, chain 1 of 3): as the sequence (P02671 other isoform, or with tags, fused parts or gaps, chain 1 of 3) above
Fibrinogen, periodate-treated, sequence (P02675 31-491, chain 2 of 3): as the sequence (P02675 31-491, chain 2 of 3) above
Fibrinogen, periodate-treated, sequence (P02679 27-453, chain 3 of 3): as the sequence (P02679 27-453, chain 3 of 3) above
Alpha-1 acid glycoprotein, sequence (P02763 19-201, one chain of several): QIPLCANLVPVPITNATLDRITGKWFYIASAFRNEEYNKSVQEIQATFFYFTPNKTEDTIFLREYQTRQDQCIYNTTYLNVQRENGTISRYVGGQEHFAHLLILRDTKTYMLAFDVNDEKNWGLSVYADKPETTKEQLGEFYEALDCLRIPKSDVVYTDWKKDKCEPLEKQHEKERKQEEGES

B1: 85A TTP (ssDNA)
DNA: CCTTCGTTGTCTGCCTTCGTAGCGGATCGAATTACGCGTTAACGGCAACCGATAACGGGACCGATTGCACACCCTTCAGAATTCGCACCA
In the case of B1, the Kd in data set [1] turned out to be 600 nM; with Fetuin it was 1600 nM; in data set [2], 67.4 nM; in data set [3], 60.2 nM; in data set [4], 102 nM.

B2: 85A B-TTP H2O2-treated (ssDNA)
DNA: B1 DNA
modifications: B-TTP positions with boronic acid oxidised by peroxide
Regarding B2, the dissociation constant Kd in data set [5] is 173 nM.

B3: 85A M-TTP (ssDNA)
DNA: B1 DNA
modifications: T positions from M-TTP (alkyne-modified dU without boronic acid)
Regarding B3, in data set [6], the affinity, expressed as Kd, was 138 nM.

B4: 85C TTP (ssDNA)
DNA: CCTTCGTTGTCTGCCTTCGTAGTCGACTCTGACGCATGGACGTATCCTGTGCGTATGCATTATGAAGCACACCCTTCAGAATTCGCACCA
With B4, the Kd in data set [7] stood at 122 nM; in data set [2], 321 nM; in data set [3], 256 nM.

B5: 85B TTP (ssDNA)
DNA: CCTTCGTTGTCTGCCTTCGTAGGACCGCAGACATCGACGCAGGGAAATTCCGCAAGTCCAGCCAAATGCCACCCTTCAGAATTCGCACCA
Consider B5, for which the results for the Kd in data set [2], in data set [3] and in [8] were 130 nM, 140 nM and 63.8 nM, respectively.
